Source: doi:10.1101/2022.03.17.484791

Target: PY-NLS mutants (R206W/Q/G, P209L, and Y210C)
Test: co-IP

Kapβ2, endogenous in HEK293T cells (from UniProt Q92973 1-898) (receptor)
reduction in Kapβ2 interaction against WT: 50 to 75%
